Results reported in patent US20120269817A1 (Bayer, published 2012).

Assays:
BSA = target: T1, BSA (bovine, UniProt P02769 25-607); experiment: ELISA
T1 construct: also called bovine serum albumin
Protocol: (§1) To select antibody clones that bind to human TFPI, Fab genes of the phage clones from the second and third round of panning were subcloned into a bacterial expression vector and expressed in E. coli strain TG1. The bacterial lysate was added to the wells of the human TFPI-coated Maxisorp plates. After washing, HRP-conjugated goat anti-human Fab was used as a detection antibody and the plates were developed by adding AmplexRed (Invitrogen) with hydrogen peroxide. A signal of at least five-fold higher than the background was considered as positive. The cross reactivity of the anti-human TFPI antibodies to mouse TFPI was determined by a similar mouse TFPI-binding ELISA. The plates were coated with mouse TFPI (R&D System), BSA and lysozyme. The later two antigens were used as negative controls.

[1] = target: T2, human tissue factor pathway inhibitor (TFPI) (human, UniProt P10646 29-304, limits assumed); experiment: ELISA, Fab lysate on coated human TFPI
T2 construct: Bought protein; also called human TFPI; hTFPI
T2 sequence (looked up): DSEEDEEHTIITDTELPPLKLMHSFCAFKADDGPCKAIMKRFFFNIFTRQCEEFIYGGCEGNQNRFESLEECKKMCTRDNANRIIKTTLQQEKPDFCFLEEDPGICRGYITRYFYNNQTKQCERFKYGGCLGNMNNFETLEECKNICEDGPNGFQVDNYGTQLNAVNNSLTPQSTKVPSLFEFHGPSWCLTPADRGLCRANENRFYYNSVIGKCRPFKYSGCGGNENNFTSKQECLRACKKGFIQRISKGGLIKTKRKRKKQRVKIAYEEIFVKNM
Protocol: as §1

[2] = target: T2, human tissue factor pathway inhibitor …; experiment: ELISA, Fab on coated TFPI
Protocol: as §1
(§2) Purified Fab antibodies were used to determine EC₅₀ of anti-TFPI antibodies to human or mouse TFPI. EC₅₀ was assessed in an ELISA, similarly as described above. The results were analyzed using SoftMax. The binding affinity of anti-TFPI antibodies was determined in a Biacore assay. Briefly, the antigen, either human or mouse TFPI, was immobilized on the CM5-chips using the amine coupling kit (GE HealthCare) according to the instructions of the manufacturer. The amount of immobilized TFPI was adjusted to the mass of the antigen to give approximate 300 RU. The antibody Fabs were analyzed in mobile phase and at least five different concentrations (0.1, 0.4, 1.6, 6.4 and 25 nM) of the purified antibodies were used in the Biacore assay. The kinetics and binding affinity were calculated using Biacore T100 Evaluation software.

[3] = target: T2, human tissue factor pathway inhibitor …; experiment: Biacore, TFPI on CM5 chip, Fab in mobile phase
Protocol: as §2

T1 sequence (P02769 25-607 limits assumed): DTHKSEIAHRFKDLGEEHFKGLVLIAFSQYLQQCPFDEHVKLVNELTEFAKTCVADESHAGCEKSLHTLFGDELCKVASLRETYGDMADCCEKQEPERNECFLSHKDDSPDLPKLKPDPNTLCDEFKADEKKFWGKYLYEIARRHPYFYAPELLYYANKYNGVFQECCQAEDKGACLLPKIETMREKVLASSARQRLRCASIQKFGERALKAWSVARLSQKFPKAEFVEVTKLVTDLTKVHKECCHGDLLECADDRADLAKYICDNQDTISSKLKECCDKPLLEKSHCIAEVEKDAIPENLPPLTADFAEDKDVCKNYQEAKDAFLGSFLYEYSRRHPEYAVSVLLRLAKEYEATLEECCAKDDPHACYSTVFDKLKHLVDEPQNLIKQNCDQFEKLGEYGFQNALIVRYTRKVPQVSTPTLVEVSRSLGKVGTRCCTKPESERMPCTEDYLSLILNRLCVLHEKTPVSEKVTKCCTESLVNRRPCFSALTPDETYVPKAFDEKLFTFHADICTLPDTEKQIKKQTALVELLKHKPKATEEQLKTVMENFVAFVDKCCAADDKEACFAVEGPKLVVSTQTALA

B1: TP-2A6 Fab (Fab, V domains shown)
VH: QVQLVESGGGLVQPGGSLRLSCAASGFTFSRYAMSWVRQAPGKGLEWVSSIISSSSETYYADSVKGRFTISRDNSKNTLYLQMNSLRAEDTAVYYCARLMGYGHYYPFDYWGQGTLVTVSS
VL: DIELTQPPSVSVAPGQTARISCSGDKIGSKYVYWYQQKPGQAPVLVIYDSNRPSGIPERFSGSNSGNTATLTISGTQAEDEADYYCASYDSIYSYWVFGGGTKLTVLG
notes: Human Fab from HuCal Gold, expressed in E. coli TG1
BSA
  binding result: no binding
[1]
  binding result: binds

B2: TP-2A10 Fab (Fab, V domains shown)
VH: QVQLVESGGGLVQPGGSLRLSCAASGFTFTSYSMNWVRQAPGKGLEWVSAISYTGSNTHYADSVKGRFTISRDNSKNTLYLQMNSLRAEDTAVYYCARAFLGYKESYFDIWGQGTLVTVSS
VL: DIELTQPPSVSVAPGQTARISCSGDKLGKKYVHWYQQKPGQAPVLVIYGDDKRPSGIPERFSGSNSGNTATLTISGTQAEDEADYYCQAWGSISRFVFGGGTKLTVLG
notes: as for B1
BSA
  binding result: no binding
[1]
  binding result: binds

B3: TP-2B1 Fab (Fab, V domains shown)
VH: QVQLVESGGGLVQPGGSLRLSCAASGFTFSSYSMSWVRQASGKGLEWVSSIKGSGSNTYYADSVKGRFTISRDNSKNTLYLQMNSLRAEDTAVYYCARNGGLIDVWGQGTLVTVSS
VL: DIELTQPPSVSVAPGQTARISCSGDNLGNKYAHWYQQKPGQAPVLVIYYDNKRPSGIPERFSGSNSGNTATLTISGTQAEDEADYYCQSWTPGSNTMVFGGGTRLTVLG
notes: as for B1
BSA
  binding result: no binding
[1]
  binding result: binds

B4: TP-2B4 Fab (Fab, V domains shown)
VH: QVQLVESGGGLVQPGGSLRLSCAASGFTFSNYSMTWVRQAPGKGLEWVSGISYNGSNTYYADSVKGRFTISRDNSKNTLYLQMNSLRAEDTAVYYCARIYYMNLLAGWGQGTLVTVSS
VL: DIELTQPPSVSVAPGQTARISCSGDALGTYYAYWYQQKPGQAPVLVIYGDMNRPSGIPERFSGSNSGNTATLTISGTQAEDEADYYCQSYDAGVKPAVFGGGTKLTVLG
notes: as for B1
BSA
  binding result: no binding
[1]
  binding result: binds

B5: TP-2B8 Fab (Fab, V domains shown)
VH: QVQLVQSGAEVKKPGASVKVSCKASGYTFTGNSMHWVRQAPGQGLEWMGTIFPYDGTTKYAQKFQGRVTMTRDTSISTAYMELSSLRSEDTAVYYCARGVHSYFDYWGQGTLVTVSS
VL: DIELTQPPSVSVAPGQTARISCSGDNLRGYYASWYQQKPGQAPVLVIYEDNNRPSGIPERFSGSNSGNTATLTISGTQAEDEADYYCQSWDSPYVHVFGGGTKLTVLG
notes: as for B1
BSA
  binding result: no binding
[1]
  binding result: binds

B6: TP-2B9 Fab (Fab, V domains shown)
VH: QVQLQQSGPGLVKPSQTLSLTCAISGDSVSSNSAAWGWIRQSPGRGLEWLGMIYHRSKWYNDYAVSVKSRITINPDTSKNQFSLQLNSVTPEDTAVYYCARYSSIGHMDYWGQGTLVTVSS
VL: DIQMTQSPSSLSASVGDRVTITCRASQSIRSYLAWYQQKPGKAPKLLIYKASNLQSGVPSRFSGSGSGTDFTLTISSLQPEDFAVYYCHQYSDSPVTFGQGTKVEIKR
notes: as for B1
BSA
  binding result: no binding
[1]
  binding result: binds

B7: TP-2D7 Fab (Fab, V domains shown)
VH: QVQLQQSGPGLVKPSQTLSLTCAISGDSVSSNSAAWGWIRQSPGRGLEWLGLIYYRSKWYNDYAVSVKSRITINPDTSKNQFSLQLNSVTPEDTAVYYCARFGDTNRNGTDVWGQGTLVTVSS
VL: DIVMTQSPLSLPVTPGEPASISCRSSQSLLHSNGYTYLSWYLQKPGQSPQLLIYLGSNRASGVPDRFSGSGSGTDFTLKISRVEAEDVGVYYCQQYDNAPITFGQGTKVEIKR
notes: as for B1
BSA
  binding result: no binding
[1]
  binding result: binds

B8: TP-2E3 Fab (Fab, V domains shown)
VH: QVQLQQSGPGLVKPSQTLSLTCAISGDSVSSNSAAWGWIRQSPGRGLEWLGMIYYRSKWYNDYAVSVKSRITINPDTSKNQFSLQLNSVTPEDTAVYYCARVNQYTSSDYWGQGTLVTVSS
VL: DIALTQPASVSGSPGQSITISCTGTSSDIGGYNYVSWYQQHPGKAPKLMIYGVNYRPSGVSNRFSGSKSGNTASLTISGLQAEDEADYYCSSADKFTMSIVFGGGTKLTVLG
notes: as for B1
BSA
  binding result: no binding
[1]
  binding result: binds

B9: TP-2F9 Fab (Fab, V domains shown)
VH: QVQLVESGGGLVQPGGSLRLSCAASGFTFYKYAMHWVRQAPGKGLEWVSGIQYDGSYTYYADSVKGRFTISRDNSKNTLYLQMNSLRAEDTAVYYCARYYCKCVDLWGQGTLVTVSS
VL: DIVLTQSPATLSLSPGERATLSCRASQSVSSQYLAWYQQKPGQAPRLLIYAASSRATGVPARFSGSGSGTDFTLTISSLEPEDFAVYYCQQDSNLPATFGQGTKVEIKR
notes: as for B1
BSA
  binding result: no binding
[1]
  binding result: binds

B10: TP-2G2 Fab (Fab, V domains shown)
VH: QVQLVESGGGLVQPGGSLRLSCAASGFTFSSYAMNWVRQAPGKGLEWVSAILSDGSSTSYADSVKGRFTISRDNSKNTLYLQMNSLRAEDTAVYYCARYPDWGWYTDVWGQGTLVTVSS
VL: DIELTQPPSVSVAPGQTARISCSGDNIRKFYVHWYQQKPGQAPVLVIYGTNKRPSGIPERFSGSNSGNTATLTISGTQAEDEADYYCQSYDSKFNTVFGGGTKLTVLG
notes: as for B1
BSA
  binding result: no binding
[1]
  binding result: binds

B11: TP-2G4 Fab (Fab, V domains shown)
VH: QVQLVESGGGLVQPGGSLRLSCAASGFTFSSYAMTWVRQAPGKGLEWVSNISYSGSNTYYADSVKGRFTISRDNSKNTLYLQMNSLRAEDTAVYYCARVGYYYGFDYWGQGTLVTVSS
VL: DIELTQPPSVSVAPGQTARISCSGDALRKHYVYWYQQKPGQAPVLVIYGDNNRPSGIPERFSGSNSGNTATLTISGTQAEDEADYYCQSYDKPYPILVFGGGTKLTVLG
notes: as for B1
BSA
  binding result: no binding
[1]
  binding result: binds

B12: TP-3A2 Fab (Fab, V domains shown)
VH: QVQLVESGGGLVQPGGSLRLSCAASGFTFSNYYLSWVRQAPGKGLEWVSGISYNGSSTNYADSVKGRFTISRDNSKNTLYLQMNSLRAEDTAVYYCARMWRYSLGADSWGQGTLVTVSS
VL: DIELTQPPSVSVAPGQTARISCSGDNIGSRYAYWYQQKPGQAPVVVIYDDSDRPSGIPERFSGSNSGNTATLTISGTQAEDEADYYCAAYTFYARTVFGGGTKLTVLG
notes: as for B1
BSA
  binding result: no binding
[1]
  binding result: binds

B13: TP-3A3 Fab (Fab, V domains shown)
VH: QVQLVESGGGLVQPGGSLRLSCAASGFTFNNNAISWVRQAPGKGLEWVSAINSSSSSTSYADSVKGRFTISRDNSKNTLYLQMNSLRAEDTAVYYCARGHHRGHSWASFIDYWGQGTLVTVSS
VL: DIELTQPPSVSVAPGQTARISCSGDNIGSKYVHWYQQKPGQAPVVVIYEDSDRPSGIPERFSGSNSGNTATLTISGTQAEDEADYYCQSWDKSEGYVFGGGTKLTVLG
notes: as for B1
BSA
  binding result: no binding
[1]
  binding result: binds

B14: TP-4A9 Fab (Fab, V domains shown)
VH: QVQLVESGGGLVQPGGSLRLSCAASGFTFSSYGMSWVRQAPGKGLEWVSLISGVSSSTYYADSVKGRFTISRDNSKNTLYLQMNSLRAEDTAVYYCARSYLGYFDVWGQGTLVTVSS
VL: DIELTQPPSVSVAPGQTARISCSGDALGKYYASWYQQKPGQAPVLVIYGDNKRPSGIPERFSGSNSGNTATLTISGTQAEDEADYYCQSYTTRSLVFGGGTKLTVLG
notes: as for B1
BSA
  binding result: no binding
[2]
  EC50: 0.17 nM
[3]
  Kd: 7.6 nM

B15: TP-3F1 Fab (Fab, V domains shown)
VH: QVQLVQSGAEVKKPGESLKISCKGSGYSFTDYWIGWVRQMPGKGLEWMGIIQPSDSDTNYSPSFQGQVTISADKSISTAYLQWSSLKASDTAMYYCARFMWWGKYDSGFDVWGQGTLVTVSS
VL: DIELTQPPSVSVAPGQTARISCSGDNIGSYFASWYQQKPGQAPVLVIYDDSNRPSGIPERFSGSNSGNTATLTISGTQAEDEADYYCEGSNVFGGGTKLTVLG
notes: as for B1
BSA
  binding result: no binding
